Test results taken from the nanobody polyreactivity screen of Harvey et al. (2022).

experiment: yeast display, Sf9 membrane polyspecificity reagent, FACS + sequencing; frameworks hold sequencing errors
How it was run: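 A synthetic nanobody library was expressed on Saccharomyces cerevisiae BJ5465 by galactose induction for 36–48 hours. The library was stained for 1 hour at 4 °C with 10% biotinylated, detergent-solubilized Sf9 membrane reagent and enriched with streptavidin microbeads before FACS. Low and high (top ~1%) gates were set on anti-HA fluorescence for expression and streptavidin fluorescence for reagent binding, and each polyreactivity label reflects the gate of origin.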

Sequence	polyreactivity (PSR sort gate)
QVHLVESGGGLVKAGGSLRLSCPASGFIFTLYAMGWYRQPPGKERELVASIRGSGGNTYYADSVKGRFTISRDNAKNTVYLQMNSLKPEDTAVYYCAAGYPYYYWTPYYYWGQGTQVTVSS	high polyreactivity
QVHLVESGGGLVLAGGSLRLSFAASGSTFDSYAMRCYRQQPGKQREFVAVINSGGSTNYADSVNGRFTISRDYSKNTVYLQMNSLKPEDTAVYYCAAEERYRWHYGGWGYWYDYWGQGTQVTVSS	low polyreactivity
QVHLVESGGGLVMAVGSLRLSCAASGFTFVGYAMGWYRQAPGKERELVATITRVGSTNYADSVKGRFTISRDNAKNTVYLQMNSLKPEDTAVYYCNTRRVYGHGKSPYDSWGQGTQVTVSS	low polyreactivity
QVHLVESGGGLVQAGGILRLSCAASGFTFIHYGMGWYRQAPGKERELVAAISSRGGRTYYADSVKGRFTISRDNAKNTVYLQMNSLKPEDTAVYYCNRDYAVISYGEYDSWGQGTEVTVSS	high polyreactivity
QVHLVESGGGLVQAGGILRLSCAASGRTFRYYAMGWYRQAPGKERELVAAISSGGSTNYADSVKGRFTISRDNAKNTVYLQMNSLKPEDSAVYYCADLWSGNKFNYWGQGTQVTVSS	low polyreactivity
QVHLVESGGGLVQAGGILRLSCAASGSTFGYYAMGWYRQAPGKERELVAAITWSGDSTYADSVKGRFTISRDNAKNTVYLQMNSLKPEDTAVYYCARRGFLGHWPRPSYDYWGQGTQVTVSS	low polyreactivity
QVHLVESGGGLVQAGGRLRLSCAASALTYAYYAMGRYREAPRKERELVAAITTGGTTNYADSVKGRFTISRDNAKNTVYLQMNSLKTEDTAVYYCARLYRSGYEYWGQGTQVTVSS	low polyreactivity
QVHLVESGGGLVQAGGRLRLSCAASGFIFWSNAMRWYRQAPGKERELVAAITWNGGDTYYADSVKGRFTISRDNAKNTVYLQMNSLKPEDTAVFYCAAVPSRRARYDYWGQGTQVTVSS	low polyreactivity
QVHLVESGGGLVQAGGRLRLSCAASGGTFYYIAMGWYRQAPGKERELVAAISWSGVSTSYADTVKGRFTISRDNEKNTVYLQMNSLKPEDTAVYYCAAGPFYYTGFEGDYWGQGTQVTVSS	high polyreactivity
QVHLVESGGGLVQAGGRLRLSCAASGSIFDDYAMGWYRQAPGKERELVAAITSGGSTYYADSVKGRFTISRDNAKNNVYLEMNSLKPEDTAVYYRATRYHWSSSFAPVGAYGYWGQGSQVTVSS	low polyreactivity
QVHLVESGGGLVQAGGSHRLSCAASGFIFKVNAMGWYRQAPGKERELVAAITGSGGSTYYADSVKGRFTISRDNAKNTVFLQMISLKPEDTAVYYCISLYDGYSTRLGFWGHGTQVTVSS	high polyreactivity
QVHLVESGGGLVQAGGSHRLSCAAYGRIFRANAKGWYRQAPGKERELVASITYSGGSTYYADSVKGRFTISRDNAKNTVYLQMNSLKPEDTAVYYCARAGISSGGYYYWGQGTQVTVSS	low polyreactivity
QVHLVESGGGLVQAGGSIRLSCAASGLIFYPYAMGWYRKAHGKEREFVAAITWSGGSTRYADSVKGRFTISLDNAKNTVYLQMNSLKPEDTAVYYCAARYIWWYDYTYTGLDYWGQGTQVSVSS	high polyreactivity
QVHLVESGGGLVQAGGSLLISCSASGSTFGTNAMGWYRQAPGKERDLVASITWSGGNTNYADSVKGRFTISRDNAKNTVYLQKKSMKPADTAVYYCAAEVFISYGVGGYYSDMDYWGQVTQVTVSS	low polyreactivity
QVHLVESGGGLVQAGGSLLLSCAASGSIFYFYAMGWYRQAPGKERELVAGITWRGGRTYYADSVKGRFTISRDNAKNTVDLQMIILKPEDTAVYYCAARFWSTYGYDSWGQGTQVTVSS	high polyreactivity
QVHLVESGGGLVQAGGSLLLSCDASGSIIKQYAMGWYRQAPGKERELVASIRWRDGSTYYADSVKGRFTISRDNAMNTVYLQMNSLKPEDTAVYYCAAYYCVWRYKYYYWGQGTQVTVSS	high polyreactivity
QVHLVESGGGLVQAGGSLLLSCSASGSIFTFNAMGWYRQAPGKERELVAAISSGGNTYYADSEKGRFTISRDNAKNSVYLQMNSLKPEDTAVYYCAAVRRTDGDGKYYYWGQGTEVTVSS	high polyreactivity
QVHLVESGGGLVQAGGSLPLSCAATGRTFVYYAMGWYIQAPGKERELVAAITWTGGSTYYADSVKGRFTISRDTAKNTVYLHMNSMKPEDTAVYYFKAAVFRYRNEYDYWGQGTQVTVSS	low polyreactivity
QVHLVESGGGLVQAGGSLRFSCAASGSTFDDYAMGWYRQAPGKERELVAAISRSDGSTSYADSVKGRFTISRDNAKNTVYLQMNSLKPEDTAVYYCAADPVFKDDLWPVRVRVDYWGQGTQVTVSS	low polyreactivity
QVHLVESGGGLVQAGGSLRISCAASGRIFRRYAMGWYRQAPGKERELVAAITRSGGSTYYADSVKGRFTISRDNAKNTVYLQMNSLKPEDTAVYYCNAPSSLGTDYDYWGQGTQVTVSS	high polyreactivity
QVHLVESGGGLVQAGGSLRISCAASGSIFFPYAMGGYRQAPGKERELVAAISYSGTSTYYAASVKGRFTISRDNAKNTVYLQMNSLKPVDTAVYYCAAYSRYYASYDYWGQGTQVTVSS	high polyreactivity
QVHLVESGGGLVQAGGSLRLCCAASGRIFDHNTKGWYRQAPGKEMEFVAAITVSAGTTYYADSVKGRFTISSDNAKNTVYLQMNSLKPEDTAVYYCAAYYVYSYWDWGDYWGQGTQVTVSS	low polyreactivity

Sequence	polyreactivity (PSR sort gate)
QVHLVESGGGLVQAGGSLRLICAASGGTLWVNTMGWYRQAPGKERELVAAISRRGGSTYYADSVKGRFTISRDNAKNTVYLQMNSLKPEDTAVYYCAKGYSSHYWWAYDSWGQGTQVTVSS	high polyreactivity
QVHLVESGGGLVQAGGSLRLICAASVFNLDWYVMGWNRQAPGKERQLVAAISSSGGRTYNADSVKGRFTISRDKAKNTVYLQMNSLKPEDTAVYYCAARNKYGGYPYGYDYWGQGTQVTVSS	high polyreactivity
QVHLVESGGGLVQAGGSLRLRCAASGIIYVRYAMGWYRHAPGKERELVAAISWSGGSTYYADSVKGRFTISRDNAKNTVYLQMNSLKPEDTAVYYCAADSHRTRGYARYFYWGQGTQVTVSS	high polyreactivity
QVHLVESGGGLVQAGGSLRLSCAASARTFTQNAMVWYRQAPGKERELVAAITRSGGSTYYADSVKGRFTISRDYAKNTVYLQMNSLKPEDTAVYYFIKYTHYYDYDYWGQGTQVTVSS	high polyreactivity
QVHLVESGGGLVQAGGSLRLSCAASASIFGSNAMGWYRQAPGKDRELVAAITWSDGSTYYADSVKGRFTISRDNAKNTVYLQMNSLKPDDTAVYYCSSDYGYSWYDYWGQGTQVTVSS	low polyreactivity
QVHLVESGGGLVQAGGSLRLSCAASGFIFPNNAMGWYRQAPGKERELVARISYGGGDTHYADSVKGRFTISRDNAKNTVYLQMNSLKPEDTAVSYCAVKDGQDDYWGQGTQVTVSS	low polyreactivity
QVHLVESGGGLVQAGGSLRLSCAASGFIFWGYAMGWYRPAPVHERELVAAISSDGDTYYADSVKGRFTISLDNAKNTVYLQMNCRKPEESAVYYCNADLYGGGDNSVISGLNGEYEYWGQGTQVTVSS	low polyreactivity
QVHLVESGGGLVQAGGSLRLSCAASGFLFDVYAMGWYRQAPGKERELVAAISRSGGSTYYADSVKGRFTISRDNAKNTVYLQMNSLKPEDTAVYYCATDLLNNVDYDYWGQGTQVTVSS	low polyreactivity
QVHLVESGGGLVQAGGSLRLSCAASGFPFADNAMGWNRQAPGKERELVAAISRRGGSTYYADSVKGRFTISRDNAKNTVYLQMNSLKAEDTAVYYCAALGNRYPYYYYYGSYYPVEYWGQGTQVTVSS	high polyreactivity
QVHLVESGGGLVQAGGSLRLSCAASGFTFIRYAMGWYRQAPGKEREFVAAISWRVGITYYADSVKGRFTISRDNAKNTVYLQMNSLKPEDTAVYYCARDYRNPPFAYEYWGQGTQVTVSS	low polyreactivity
QVHLVESGGGLVQAGGSLRLSCAASGFTFLVYAMRWYRKAPGKEREFVAAMNWSGDRTYYADSVKGLFTISREYAKNTVYLQMNSVKTEDTAVYYCAAVDYVYPQAYGYWGQGTQVTVSS	low polyreactivity
QVHLVESGGGLVQAGGSLRLSCAASGFTFRRYAMGWDRQAPGKERELVASISSGGSTNYADSVKGRCTISRDNAKNTVYLQMNSLIPEDTAVYYCAVSYRSFRYYWERYYSWGQGTQVTVSS	high polyreactivity
QVHLVESGGGLVQAGGSLRLSCAASGFTIYTYAMGGYRQAPGKERELVAAISSSGGSTSYADSVKGRFTISRDNAKITDYLQMNSLKPDDTALYYCNRGWRQQLGYWGQGTQVNVSS	high polyreactivity
QVHLVESGGGLVQAGGSLRLSCAASGFTLYYYMGWYRQAPGKERELVAGISNSGSTSYADSVKGRFTISRDNAKNTVYLQMNSLKPEDTAVYYCNAYYPAWYLDRYYYWGQGTQVTVSS	high polyreactivity
QVHLVESGGGLVQAGGSLRLSCAASGGIFPGYAMGRYRKAPGKERELVAAITKRGGRTYYADSVKGRFTISRDNAKNTVYLQMNSLKPEDTAVYYCAADYYAAYHLPDQDYDYWGQGTQVTVSS	high polyreactivity
QVHLVESGGGLVQAGGSLRLSCAASGGIFYAYDMGWYRQAPGKERELVAAITWTGGTTYYADSVKGRFTISRDNAKKTVYLLMNSLKPEDTAVYYCAADDGTNSTARDKDDYYYWGQGTEVTVSS	low polyreactivity
QVHLVESGGGLVQAGGSLRLSCAASGGTDVGYAMGWYRQAPGKEMELDATITRRGGNTYYADSVKGRFTISRDNAKNTVYLQKNSLKPEDTAVYYCAARKKGSRVGYDYWGQGTQVTVSS	high polyreactivity
QVHLVESGGGLVQAGGSLRLSCAASGIIFLVYAMGWYRQAPGKEWELVAGISGSATSTNYADSVKGRFTISRDNAKNTVYLQMNSLKPEDTAVYYCAASYYGYYVPDNSKYGYWGQGTQVTVSS	low polyreactivity
QVHLVESGGGLVQAGGSLRLSCAASGIIISSYAMGWYRQAPGKERELVAAITWGGTRTNYADSVKGRFTISRDNAKNTVYLQMNSLKPEDTAVYYCAADKYLYGRLTRNFHYYYWGQGTQVTVSS	low polyreactivity
QVHLVESGGGLVQAGGSLRLSCAASGIIVYPYAMGWYRQAPGKESELVATISYRGGSTYYADSVKGRFTISRDNAKNTVYLQMNSLKPEETAVYYCAAERGYPKFGYCGQGTQVTVSS	low polyreactivity
QVHLVESGGGLVQAGGSLRLSCAASGITFISYAMGWYRQAPGKEREFVAAITRRGGSTYYADSVKGRFTISRDNAKNTVYLQMNSLKPEDTAVYYCAARVLSLYTYYYWGQGTQVTVSS	high polyreactivity
